T1: peptide No. 21 of Table 11 (SEQ ID NO: 229) (human)
T1 peptide: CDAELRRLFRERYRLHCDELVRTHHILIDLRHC

T2: mouse TROP-2 protein transiently expressed in CHO-K1 cells (mouse, UniProt Q8BGV3 25-317)
T2 construct: whole, on cells
T2 sequence (looked up): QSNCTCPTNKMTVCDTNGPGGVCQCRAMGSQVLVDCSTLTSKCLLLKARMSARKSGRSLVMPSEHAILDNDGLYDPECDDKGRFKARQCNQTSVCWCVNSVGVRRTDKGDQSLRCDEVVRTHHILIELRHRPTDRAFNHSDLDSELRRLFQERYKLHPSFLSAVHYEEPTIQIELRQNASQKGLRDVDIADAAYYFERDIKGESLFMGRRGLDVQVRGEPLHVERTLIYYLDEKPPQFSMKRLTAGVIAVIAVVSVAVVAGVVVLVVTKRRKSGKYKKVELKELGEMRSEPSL

T3: recombinant hTACSTD2-Fc-His protein (Creative BioMart) (human, UniProt P09758 27-274, limits assumed)
T3 construct: bought protein; also called hTROP-2 (low-density antigen-coated ELISA); not shown: Fc part of the bought fusion protein; not described; His tag
T3 sequence: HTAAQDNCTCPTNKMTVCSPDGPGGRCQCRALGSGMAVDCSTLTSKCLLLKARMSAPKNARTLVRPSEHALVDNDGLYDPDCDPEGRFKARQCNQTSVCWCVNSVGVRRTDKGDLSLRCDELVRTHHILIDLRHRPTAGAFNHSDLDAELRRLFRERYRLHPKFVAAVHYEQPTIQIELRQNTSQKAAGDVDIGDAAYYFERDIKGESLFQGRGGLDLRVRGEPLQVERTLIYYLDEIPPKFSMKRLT

T4: recombinant protein of the hTROP-2 extracellular region (human, UniProt P09758 27-263)
T4 construct: produced with baculovirus, purified on Ni Sepharose; also called hTROP-2 EC; hTROP-2-EC-His; not shown: C-terminal myc-His tag from pcDNA4/myc-His A
T4 sequence: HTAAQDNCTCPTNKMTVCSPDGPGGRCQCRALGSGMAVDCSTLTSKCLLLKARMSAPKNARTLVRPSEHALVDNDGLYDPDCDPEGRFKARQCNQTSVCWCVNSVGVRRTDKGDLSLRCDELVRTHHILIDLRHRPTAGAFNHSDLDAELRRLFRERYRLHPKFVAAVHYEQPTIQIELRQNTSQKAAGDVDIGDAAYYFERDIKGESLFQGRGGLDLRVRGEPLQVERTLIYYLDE


Key:
[1] = molecular target: T1, peptide No. 21 of Table 11 (SEQ ID NO: …); assay: PEPSCAN/CLIPS peptide ELISA, antibody 1 µg/mL
Description: 5034 types of the synthesized peptides were covalently bound to PEPSCAN cards (455 peptides/card), and the binding of the synthesized peptides to antibodies was then analyzed by the ELISA method. […] After washing, the resultant was allowed to react with a 1000-fold diluted peroxidase-secondary antibody complex at 25° C. for 1 hour. After washing, a substrate solution (a solution containing 2,2′-azino-di-3-ethylbenzthiazoline sulfonate (ABTS) and 2 μL of 3% hydrogen peroxide solution) was added to the reaction solution, followed by a chromogenic reaction for 1 hour. The binding activity of the antibodies was quantified by photographing with a CCD camera and then performing an image analysis.

[2] = molecular target: T2, mouse TROP-2 protein transiently …; assay: FACS on CHO-K1 cells transiently expressing mouse TROP-2
From the text: Specifically, each of an expression vector (mouse TROP-2-pcDNA3.1(+), furnished by the Institute of Molecular and Cellular Biosciences, the University of Tokyo) comprising the full-length cDNA of a mouse TROP-2 gene (GenBank accession No. NM_020047, Y08830), and an expression vector (pcDNA3.1-hEpCAM-myc/His) comprising the full-length cDNA of a human TROP-1/EpCAM gene (GenBank accession No. NM_002354), was transiently introduced into CHO-K1 cells, using Lipofectamine2000 reagent (Invitrogen). Thereafter, 24 to 48 hours later, the cells were removed from a culture dish by treating them with trypsin, and a cell suspension was then prepared. The thus prepared cell suspension was successively reacted with the produced anti-hTROP-2 monoclonal antibody (0.1 μg) and with PE-labeled anti-mouse IgG, and it was then analyzed by FACSCalibur.

[3] = molecular target: T3, recombinant hTACSTD2-Fc-His protein …; assay: low-density antigen-coated ELISA, plate coated with 0.1 µg/mL hTACSTD2-Fc-His
Description: Furthermore, antigen affinity was also examined by an ELISA method. ELISA was carried out using an ELISA plate which was coated with the recombinant protein of the hTROP-2 extracellular region as described in Example 3. […] Thereafter, the resultant was washed with a washing buffer (PBS containing 0.05% Tween 20), and a blocking buffer (PBS containing 2% skim milk and 0.05% Tween 20) was then added thereto (200 μl/well) to block it (at room temperature for 1 hour). The resultant was washed with a washing buffer. […] The obtained dilution samples were each added in an amount of 50 μl/well to the above-described ELISA plate (at room temperature for 2 hours). […] After the mixture had been washed with a washing buffer, a TMB (3,3′,5,5′-tetramethylbenzidine: SIGMA) substrate solution was added (50 μl/well) to the resultant to carry out a color reaction. Then, 1 M sulfuric acid (25 μl/well) was added to the reaction product to terminate the reaction. Using Microplate reader Model 550 (BioRad), an absorbance at 450 nm was measured with an absorbance at 655 nm used as a reference.

[4] = molecular target: T4, recombinant protein of the hTROP-2 …; assay: monovalent ELISA: antibody captured by anti-mouse IgG, hTROP-2 EC titrated in solution, detected with anti-His
Description: Thereafter, coating was carried out at 4° C. overnight. Thereafter, the reaction product was washed with a washing buffer (PBS containing 0.05% Tween 20), and a blocking buffer (PBS containing 2% skim milk and 0.05% Tween 20) was then added thereto (200 μL/well) to block it (at room temperature for 1 hour). The resultant was washed with a washing buffer. […] The mixture was left at rest at room temperature for 1 hour, and the reaction product was then washed with a washing buffer. The recombinant protein of the hTROP-2 extracellular region described in Example 3 (hTROP-2 EC) was diluted with an ELISA buffer to prepare samples with a concentration range from 5 μg/mL to a series of three-fold dilutions (10 samples). The thus obtained sample was added in each amount of 50 μL/well to the plate. The mixture was left at rest at room temperature for 1 hour, and the reaction product was then washed with a washing buffer. […] The obtained mixture was left at rest at room temperature for 1 hour, and it was then washed with a washing buffer. […] The obtained mixture was left at rest at room temperature for 1 hour, and it was then washed with a washing buffer. […] Using Microplate reader Model 550 (BioRad), an absorbance at 450 nm was measured with an absorbance at 655 nm used as a reference.

| Binder | binding of 16-16 [1] | binding result [2] | EC50 [3] [µg/mL] | EC50 [4] [µg/mL] |
| --- | --- | --- | --- | --- |
| anti-hTROP-2 monoclonal antibody clone T6-16 (antibody, mouse IgG2a, V domains shown, mouse IgG2a, hybridoma FERM BP-11346; also called T6-16 antibody) VH: EVQLQQSGPELVKPGASVKISCKASGYTFTDYNMHWVKQSHGKNLEWIGYIYPYNGGTGYNQRFKSRATMTVDKSSSTAYMELRSLTSDDSAVYYCAREDYGSSPSYAMDYWGQGTSVIVSS VL: DVVMTQTPLSLPVSLGDQASISCRSSQSLVHGNGNTYLHWYLQKPGQSPKLLIYKVSNRFSGVPDRFSGSGSGTDFTLKISRVEAEDLGVYFCSQTTHVPTFGSGTKLEIK | 527 | no binding (tested: 0.1 µg antibody) | 0.041 | – |
| anti-hTROP-2 monoclonal antibody clone K5-70 (antibody, mouse IgG2a, V domains shown, mouse IgG2a, hybridoma FERM BP-11251; also called K5-70 antibody; mouse K5-70 antibody) VH: QVQLQQPGAELVRPGASVKLSCKASGYTFTIYWINWVKQRPGQGLEWIGNIYPSDSYTNYNQKFKDKATLTVDKSSSTAYMQLSSPTSEDSAVYYCTRTSMADYWGQGTTLTVSS VL: DILLTQSPAILSVSPGERVSFSCRASQSIGTSIHWYQQRTNGSPRLLIKYASESISGIPSRFSGSGSGTDFTLSINSVESEDIADYYCQQSNSWPFTFGSGTKLEIK | – | no binding (tested: 0.1 µg antibody) | 0.012 | 0.007 |

Reference: patent US20160333110A1 (CHIOME BIOSCIENCE, published 2016)
